Experimental data from patent US9295682B2, “Adjuvant immunotherapy for the preventive, curative or palliative treatment of chronic systemic diseases such as cancer, of clinical manifestations associated with diseases like cachexia and correction of adverse effects of drugs such as immunosuppression, neutropenia and lymphopenia, comprising …” (priority 2009, dated 2016).

Test system: Lewis lung carcinoma (3LL)
Experiment: Lewis lung carcinoma (3LL) survival, 1st experiment (Table A)
Assay type: in vivo, C57B1/6 female mice
Conditions: 100 days; IM-2 0.5 mg/kg/day alone, IM-2 0.5 mg/kg + Il-2 0.05 μg/animal, or IL-2 0.1 μg/animal alone; i.p., 3 weekly cycles
Method: Animals: 3-week-old C57B1/6 female mice were used in all the experiments (Table A, Table B, Table C)
Tumor: Lewis lung carcinoma (3LL) was the tumor selected for all the in vivo assessments (Table A, Table B, Table C) in these experiments, with the cells maintained in culture medium and inoculated subcutaneously in the animals at the concentration of 6×10^5 cancer cells (3 LL) for each animal.
Treatments: All treatments began 24 hours after the inoculation of cancer cells.
Observation period: The animals were evaluated during an observation period of 100 days in the survival experiment.
A fourth batch of 20 animals (Group 4) inoculated with 3 LL cells (6×10^5 cells/animal), was treated with 0.5 mg/kg/day of the proteic aggregate of ammonium and magnesium phospholinoleate-palmitoleate anhydride (Table A—Group 4—IM-2) and Interleukin-12 (IL-12), 0.05 g/animal given jointly by intraperitoneal injections in 3 weekly cycles. The animals were followed up for 100 days.
A fifth batch of 20 animals (Table A—Group 5) inoculated with 3 LL cells (6×10^5 cells/animal) was treated with Interleukin-12 (IL-12), 0.1 μg/animal applied by intraperitoneal injection in 3 weekly cycles. The animals were followed up for 100 days, and the number of survivors was expressed in percentage.

B1: Interleukin-12 (IL-12) (protein, UniProt P29459 23-219; P29460 23-328, looked up)
Interleukin-12 subunit alpha: RNLPVATPDPGMFPCLHHSQNLLRAVSNMLQKARQTLEFYPCTSEEIDHEDITKDKTSTVEACLPLELTKNESCLNSRETSFITNGSCLASRKTSFMMALCLSSIYEDLKMYQVEFKTMNAKLLMDPKRQIFLDQNMLAVIDELMQALNFNSETVPQKSSLEEPDFYKTKIKLCILLHAFRIRAVTIDRVMSYLNAS
Interleukin-12 subunit beta: IWELKKDVYVVELDWYPDAPGEMVVLTCDTPEEDGITWTLDQSSEVLGSGKTLTIQVKEFGDAGQYTCHKGGEVLSHSLLLLHKKEDGIWSTDILKDQKEPKNKTFLRCEAKNYSGRFTCWWLTTISTDLTFSVKSSRGSSDPQGVTCGAATLSAERVRGDNKEYEYSVECQEDSACPAAEESLPIEVMVDAVHKLKYENYTSSFFIRDIIKPDPPKNLQLKPLKNSRQVEVSWEYPDTWSTPHSYFSLTFCVQVQGKSKREKKDRVFTDKTSATVICRKNASISVRAQDRYYSSSWSEWASVPCS
- % Survivors: 50%
